Experiments:
purified protein [1] = substrate: CCCC=O; experiment: purified protein; assay type: biochemical, Geobacillus stearothermophilus; details: 0.3 mM NADH, 2.5 mM MgSO4, 100 mM HEPES pH 7, 50°C, butyraldehyde 0.8–3 mM
purified protein [2] = substrate: CC=O; experiment: purified protein; assay type: biochemical, Geobacillus stearothermophilus; details: 0.3 mM NADH, 2.5 mM MgSO4, 100 mM HEPES pH 7, 50°C, acetaldehyde 0.01–0.14 mM

B1: ADH (ADH-HT) (Geobacillus stearothermophilus) (protein)
chain: MKAAVVEQFKEPLKIKEVEKPTISYGEVLVRIKACGVCHTDLHAAHGDWPVKPKLPLIPGHEGVGIVEEVGPGVTHLKVGDRVGIPWLYSACGHCDYCLSGQETLCEHQKNAGYSVDGGYAEYCRAAADYVVKIPDNLSFEEAAPIFCAGVTTYKALKVTGAKPGEWVAIYGIGGLGHVAVQYAKAMGLNVVAVDIGDEKLELAKELGADLVVNPLKEDAAKFMKEKVGGVHAAVVTAVSKPAFQSAYNSIRRGGACVLVGLPPEEMPIPIFDTVLNGIKIIGSIVGTRKDLQEALQFAAEGKVKTIIEVQPLEKINEVFDRMLKGQINGRVVLTLEDK
notes: codon-optimised synthetic gene in pET-22b (NdeI/XhoI), C-terminal His-tag, expressed in E. coli, IMAC purified
Km (purified protein [1]): 1430 ± 160 µM
kcat (purified protein [1]): 49.16 ± 3.8 s⁻¹
Km (purified protein [2]): 65 ± 5 µM
kcat (purified protein [2]): 141.44 ± 14.52 s⁻¹

— PMC5066087, “In Vitro Bioconversion of Pyruvate to n-Butanol with Minimized Cofactor Utilization” (Frontiers in Bioengineering and Biotechnology, 2016)
